Laboratory results published in publication PMC7414021, “Dodecin as carrier protein for immunizations and bioengineering applications” (Scientific Reports, 2020).

Legend:
mtDod(WT) = biological target: T1, mtDod(WT) (Mycobacterium tuberculosis, UniProt I6XY36)
T1 construct: gene Rv1498A

[1] = biological target: mtDod-mmACP (Mycobacterium tuberculosis | Mus musculus); test: SEC
[2] = biological target: mtDod-mmACP (Mycobacterium tuberculosis | Mus musculus); test: SDS-PAGE (dodecamer stable in SDS)
[3] = biological target: the molecule itself; test: SDS-PAGE (dodecamer stable in SDS)

Cc1cc2nc3c(=O)[nH]c(=O)nc-3n(C[C@H](O)[C@H](O)[C@H](O)COP(=O)(O)O)c2cc1C [FMN]
thermocyclic fluorescence assay (quenching of FMN fluorescence on binding to the) (mtDod(WT)): fluorescence quenching that is observed when flavins bind to dodecin

mtDod-mmACP
stoichiometry N [1]: 12
stoichiometry N [2]: 12

B1: Mycobacterium tuberculosis dodecin wild type (natural protein)
chain: MSNHTYRVIEIVGTSPDGVDAAIQGGLARAAQTMRALDWFEVQSIRGHLVDGAVAHFQVTMKVGFRLEDS
notes: also called mtDod(WT); mtDod; copies: 12
stoichiometry N [3]: 12
